For the assay, the target named is T1, KDM5A1-797 ΔPHD1 (Homo sapiens, UniProt P29375, DEL288-347/INS286GSGSGSG).
T1 construct: The KDM5A1-797 ΔPHD1 construct was generated after removing the residues Ser287-Lys347; His (N, cleaved yes); made in house; host or cells: Sf21 insect cells (baculovirus)
T1 sequence (P29375 with tags, fused parts or gaps INS286GSGSGSG/DEL288-347): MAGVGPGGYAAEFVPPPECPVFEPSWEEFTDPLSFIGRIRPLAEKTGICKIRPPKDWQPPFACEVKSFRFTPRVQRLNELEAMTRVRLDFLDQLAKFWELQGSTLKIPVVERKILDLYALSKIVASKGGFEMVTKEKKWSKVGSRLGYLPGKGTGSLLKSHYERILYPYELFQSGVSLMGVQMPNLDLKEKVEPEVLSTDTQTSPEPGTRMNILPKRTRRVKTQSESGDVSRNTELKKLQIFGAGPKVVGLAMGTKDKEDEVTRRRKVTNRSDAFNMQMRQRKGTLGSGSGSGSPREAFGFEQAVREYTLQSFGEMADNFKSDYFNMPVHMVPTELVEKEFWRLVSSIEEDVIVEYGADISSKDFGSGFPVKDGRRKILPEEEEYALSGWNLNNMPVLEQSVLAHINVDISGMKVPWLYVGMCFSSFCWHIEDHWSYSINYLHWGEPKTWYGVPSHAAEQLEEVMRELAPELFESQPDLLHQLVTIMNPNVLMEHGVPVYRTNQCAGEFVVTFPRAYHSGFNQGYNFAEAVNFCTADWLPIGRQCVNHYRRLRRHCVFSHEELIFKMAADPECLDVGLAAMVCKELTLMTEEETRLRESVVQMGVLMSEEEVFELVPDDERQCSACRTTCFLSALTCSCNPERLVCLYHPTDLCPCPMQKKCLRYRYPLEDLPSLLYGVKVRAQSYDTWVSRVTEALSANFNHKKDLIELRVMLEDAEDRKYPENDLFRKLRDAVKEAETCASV
As to the kind of experiment: KDM5A ΔPHD1 demethylation, formaldehyde release assay. Format: biochemical. The procedure:
The KDM5A1-797 ΔPHD1 construct was generated after removing the residues Ser287-Lys347 and replacing them with a (GS)4 linker before cloning into a pFASTBAC HTA vector. The protocol for expression and purification of the KDM5A1-797 ΔPHD1 construct was the same as WT.
Michaelis–Menten parameters were determined using Graphpad Prism.

Where [1] appears, read: KDM5A1-797 ΔPHD1, n ≥ 3, s.e.m.

On to “Ac-H3K4me3 21mer: N-terminally acetylated 21mer H3K4me3 peptide, catalytic domain substrate”, for which, where the note is “KDM5A1-797 ΔPHD1”, the kcat/Km was found to be 57.7 ± 13.7 M⁻¹ s⁻¹. In addition, under setting [1], the Km stood at 819 ± 133 µM and the kcat was found to be 0.0472 ± 0.0035 s⁻¹. Moreover, the “increase in Km on PHD1 deletion” value (ΔPHD1 vs WT KDM5A1-797) is “eightfold”.

In general, kcat/Km refers to the second-order rate constant that governs catalysis at low substrate concentration. Broadly, the Km is the concentration of substrate that gives half-maximal velocity. Usually kcat stands for the maximal rate divided by the concentration of active sites.

Values taken from publication PMC6327041 (Nature Communications, 2019).
